Test results: patent US20090098106
Positions count from the first letter of the chain named.

Columns and labels:
[1] = biological target: T1, HC8 (α7) subunit of the human 20S proteasome, P25788
T1 chain: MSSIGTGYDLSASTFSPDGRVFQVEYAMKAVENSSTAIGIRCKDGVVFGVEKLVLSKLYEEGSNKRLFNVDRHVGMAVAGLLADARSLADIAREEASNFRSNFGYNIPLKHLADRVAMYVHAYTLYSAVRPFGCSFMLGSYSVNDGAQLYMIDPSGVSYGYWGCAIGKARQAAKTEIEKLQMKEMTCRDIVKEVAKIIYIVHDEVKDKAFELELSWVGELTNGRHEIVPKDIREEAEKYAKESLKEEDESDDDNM

[2] = biological target: T2, HC8 SS 243,250AA mutant, P25788
T2 chain: T1 chain with S243A, S250A

B1: NF-κB inducing kinase (NIK), human, full length (protein)
chain: MAVMEMACPGAPGSAVGQQKELPKPKEKTPPLGKKQSSVYKLEAVEKSPVFCGKWEILNDVITKGTAKEGSEAGPAAISIIAQAECENSQEFSPTFSERIFIAGSKQYSQSESLDQIPNNVAHATEGKMARVCWKGKRRSKARKKRKKKSSKSLAHAGVALAKPLPRTPEQESCTIPVQEDESPLGAPYVRNTPQFTKPLKEPGLGQLCFKQLGEGLRPALPRSELHKLISPLQCLNHVWKLHHPQDGGPLPLPTHPFPYSRLPHPFPFHPLQPWKPHPLESFLGKLACVDSQKPLPDPHLSKLACVDSPKPLPGPHLEPSCLSRGAHEKFSVEEYLVHALQGSVSSSQAHSLTSLAKTWAARGSRSREPSPKTEDNEGVLLTEKLKPVDYEYREEVHWATHQLRLGRGSFGEVHRMEDKQTGFQCAVKKVRLEVFRAEELMACAGLTSPRIVPLYGAVREGPWVNIFMELLEGGSLGQLVKEQGCLPEDRALYYLGQALEGLEYLHSRRILHGDVKADNVLLSSDGSHAALCDFGHAVCLQPDGLGKSLLTGDYIPGTETHMAPEVVLGRSCDAKVDVWSSCCMMLHMLNGCHPWTQFFRGPLCLKIASEPPPVREIPPSCAPLTAQAIQEGLRKEPIHRVSAAELGGKVNRALQQVGGLKSPWRGEYKEPRHPPPNQANYHQTLHAQPRELSPRAPGPRPAEETTGRAPKLQPPLPPEPPEPNKSPPLTLSKEESGMWEPLPLSSLEPAPARNPSSPERKATVPEQELQQLEIELFLNSLSQPFSLEEQEQILSCLSIDSLSLSDDSEKNPSKASQSSRDTLSSGVHSWSSQAEARSSSWNMVLARGRPTDTPSYFNGVKVQIQSLNGEHLHIREFHRVKVGDIATGISSQIPAAAFSLVTKDGQPVRYDMEVPDSGIDLQCTLAPDGSFAWSWRVKHGQLENRP
[1]
  in vitro kinase assay (phosphorylation of HC8 in the immunoprecipitate): HC8 was found to be a substrate for NIK phosphorylation in an in vitro kinase assay
[2]
  in vitro kinase assay (phosphorylation of HC8 in the immunoprecipitate): Replacement of two serine residues on HC8 (amino acids 243 and 250) by alanine completely abolished the NIK-induced phosphorylation of HC8
